From article PMC10332591
Where “and” joins values, the source holds several entries; their conditions need not be identical. Equal entries are not always repeated.

Molecular target: human CD64 (FcγRI) (human) (UniProt P12314)
Assay: BLI; Octet RED96; biotinylated human CD64, CD32a or CD16a loaded on streptavidin biosensors; serially diluted ARX788 drug substance in HBS-P+ buffer; global fit, Langmuir 1:1 model; for CD32a and CD16a only 3.0 seconds of the dissociation step fitted to avoid avidity effects

human CD64 (FcγRI) (human), sequence (P12314 16-374): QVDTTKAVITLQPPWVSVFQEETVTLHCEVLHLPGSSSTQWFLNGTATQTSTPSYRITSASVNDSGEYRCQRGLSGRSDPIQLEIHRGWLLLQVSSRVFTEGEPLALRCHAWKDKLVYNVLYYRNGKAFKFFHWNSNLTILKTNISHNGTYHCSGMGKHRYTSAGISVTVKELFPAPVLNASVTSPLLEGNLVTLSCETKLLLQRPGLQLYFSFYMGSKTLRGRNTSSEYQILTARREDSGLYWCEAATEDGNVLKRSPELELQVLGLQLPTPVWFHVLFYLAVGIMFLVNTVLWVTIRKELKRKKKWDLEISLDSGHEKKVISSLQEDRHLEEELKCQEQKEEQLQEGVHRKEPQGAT

ARX788 (antibody)
KD ratio (Sample/RS): 0.98 and 0.89 and 1
